In the DeepSol protein solubility set:

Assay: soluble on expression in E. coli; label from the status in PepcDB or PDB records

Sequence	soluble on expression in E. coli
MVVVEQIKSQKIHGCQILETVYKHSCGGLPPVRSALEKILAVCHGVMYKQLSAWMLHGLLLDQHEEFFIKQGPSSGNVSAQPEEDEEDLGIGGLTGKQLRELQDLRLIEEENMLAPSLKQFSLRVEILPSYIPVRVAEKILFVGESVQMFENQNVNLTRKGSILKNQEDTFAAELHRLKQQPLFSLVDFEQVVDRIRSTVAEHLWKLMVEESDLLGQLKIIKDFYLLGRGELFQAFIDTAQHMLKTPPTAVTEHDVNVAFQQSAHKVLLDDDNLLPLLHLTIEYHGKEHKADATQAREGPSRETSPREAPASGWAALGLSYKVQWPLHILFTPAVLEKNRQF	soluble
MAHHHHHHMSRHPLSRHINTSSVKLKIVKCKLFDIGEGISEVEITQWNKNEGDNVSEMETLLTVQSDKAAVDITSKYSGVLVKRYAEEKDVIKIGSYFCEIDTEDEVGEAAEEVVANEVADEADGRVDPGGPLSPAKVTQQGSKAPTVKASPGVKKKAQEYKLDVDAIGSYFSKEAITMLDVELYHQKVKSGEISNAGSDFNGEVLEEVPLKGIKLAMCKCMNDSLSIPLFHLNEKYNVQNLLSARNVIKKSVLQKDNVNVTLTSVLIKLISTVLKDFPLLNSKFDSQKNAYTIFKSHNVCVAMDTPNGLLVPNIKQVESKNVVEIQKELTSLRDKALQMKLSKSDISGGTITVSNFGVIGGTFATPIVFENQACIIGLSKIQKQLLLKNEKKELTALSDILVADVMNLTFGADHRFVDGATLAQFSKKLKEVVEGVTSLDPYAA	not soluble
MLIINKLNHAQKQLEKLNFIPQQADKVDFLASSSEFKARILQLINTAKSRIYLTALYFEQDEAGQQILAALYQAKLANPALDIQILVDWHRAQRGRIGEKTTSSNADWYANMKQQYNLPPEQEIAVWGVPINGREIFGVLHLKGFIFDDTILYSGASINNVYLQQFDRYRYDRYHTLENKVLADSLVTFLQQHILTDHAVNRLDNMQRPVTANIRPAIKAFRKQLTKQQYQFAEQPESNGLMLSPIAGLGRKNQLNKTIEALFYKTQNKLTICTPYFNFPRSLITRIKWLLENGKQVEIIAGDKKANDFYTPPDKKFTMAAALPYLYEKNLRAFAKRFDSYIQNKLLTIRLWKDGENTYHLKGLWVDNRYILLTGNNLNPRAWGLDAENGILLDDPKAELAEKAALELTQIRTFTQELSHYSDLETIKDYPLEVQKLLKKFGRVKLDKIIKMLLLEHHHHHH	not soluble
MKQVLVIKNERSSAKKIVSGLTQEGYFILKLHNENEGLNIIYEQDWDIIILDWDSLSISGPEICRQIRLVKTTPIIIVTDNISSKDCVAGLQAGADDYIRKPFAKEELVARVQAILRRSDCNQQKEINFFQFKDLFVDASSNIVKKGGKNLSLTKREYDLLVFLIKNKNTILSREMLLNQVWGYNIVVNPNVVDLYIGYVRKKLKCEKKERYIQTIHGRGYSMIE	not soluble
LPKNLMVRLRSNTEPLSKKLRVVADYVLENAHEVQYQTITDLAFNTKTSEATVVRLCRDLGYKGYSDFRMALAVDLSQSANQSQPKMDGDICEVSAQSAVDSLMDTAKLIDRAALNRICELVHGAK	not soluble
MGYESMLADIKSSLNGKISDVEDKIEKLKKAKKDIDTLQEEAITEIKEIVKPELGKHWTGTKADDFDKGREEAKSEASKIVNDKYNEYMASINGKIFDLEWDKAKYASELFIANGAADLLKKGEEFAEEVGNTISKLKWWLEHHHHHH	soluble
MAPILSHSIPIPSSMQANWQQMLNLLAEVLKVSATLIMRLRHHDLDVFCTSVGSDNPYQVGMTERLGTGLYCETVVNTRQILLVSNADLDPLWKDNPDLELGMRAYCGVPLQWPNGELFGSLCVTDRQARQFLSTDQQLIKTFAESIEAQLKTLYQRETLLQMNQ	not soluble
MGSDKIHHHHHHMVIVARCNHNGSNLTEQFPPINDIRSNSRQLVRELGFMGGDFAGTDLPPSSVHALIEIEACPGITAKDLGKLLRLEKSSVSRMLRKLILSGDIVEQTDDVDSRIKRLRLTGQGREKVSGINGFANRQVSGALAQLTATDAHTILEGLRLYAGALGARTGTPASTVDIKQGYRPGIIARITQMHALYYARTSGFGQRFESVVAEGLAAFCNRLENPRNAIWVAMRGQEIIGSVAIDGEDLGADIAHLRWFIVDDGIRGGGVGRRLLATALAFADQAGFAETHLWTFNGLLAARHLYETHGFTCTEEYPGSQWGSEVLEQRFIRPRPE	not soluble
MGSDKIHHHHHHMRCPWRKTRRHSDNGWYGPRNQIRPDDHRLHRKVRKSRGDSRRAGNGSPRARCFEGAQRRGKSDGLSECGRMKNLLEMVELVRGKRMKIAVGAAEDEEVLKAVARAKEEEIVDPVLFGKRKDIETLVERMNLELEAEIVHVEDPFEAVRKAVESVSRNETQILMKGKIKTSDLFSVFLKKEYGLRTGRTLSAVSVHEVPGYHKILIISDGGLVISPNLQQRMDIVENSILVARALGIEKPKIALLGTGDLKSPLTLEIAALSKIFQQRNDCIVDGPLTLDLAISEELASKAGNSPVAGDADILIVPSIETGNILSKSLVYMARGRAAIVVVGGRVPVVLTSRADDEETRFLSIALSVLVAQKKG	not soluble
MGHHHHHHSHMRLSQKWQVINQRSLLCGEDEAADENPESQEMLEEQLVRMLTREVMDLITVCCVSKKGADHSSAPPADGDDEEMMATEVTPSAMAELTDLGKCLMKHEDVCTALLITAFNSLAWKDTLSCQRTTSQLCWPLLKQVLSGTLLADAVTWLFTSVLKGLQMHGQHDGCMASLVHLAFQIYEALRPRYLEIRAVMEQIPEIQKDSLDQFDCKLLNPSLQKVADKRRKDQFERLIAGCIGKPLGEQFRKEVHIKNLPSLFKKTKPMLETEVLDNDGGGLATIFEP	not soluble
MTDTRASAHLYPAHDLAVCTDAGSAVERITAIYDRSAQAIRARFHAFARGEALDDDTPACYPYLGITVDPKTLVSDARPSWGTVAYPGVYGTTLTRPDLFREYYRVQIERLLHYHNSPVVVGVSNRPIPLPFVVEASTIDITPEQARALGGAFPLPDLAQIDDAIANGTYRPADNEPQPLSMFTAERVDLALQRLYHYTATHPKHFQRFVLFTNYQRYVDEFAALGRKLMEEGNDEGYVRFVEPGDTVHELGTPAPDDSHRIKGLPQMPAYHLVREDRLGVTLVNIGVGPSNAKTITDHLAVLRPHCWMMIGHCGGLRRSQQLGDYVLAHAYVRDDHVLDQDLPPWVPVPPIAEIQVALQEAVARITGLSGSDMKSRMRTGTVVSTDDRNWELKYQALYTRFNQSRAIAIDMESATIAANGFRLRVPYGTLLCVSDKPLHGELKLRGMANLFYRQRVSQHLAIGMEAVRLLRENGVETLHSRKLRSFDEPAFR	soluble
GPGSMWGRYVRVCTREQHSRKQLTSAGVPQGGVPGPKLFLHCVDDLLHRMDNIYSASAFMHADDLKLVASGADIHACAAAMQPALPLITKWAAEHSLKINVAKSESALFHISSHTRSDEDMVDLLPGNGNLRIQSCPVRLLDTTFDRLLNFGPHASTAAKRTMPRRYQLRPVAQAGASHHNTQSFSIGYVHIVLFHNGDAILPCFAHIYLHNMEVRYRDGRKTFLA	not soluble
MKSAEIREAFLRFFEEKGHTRVASSSLIPANDPTLLFTNAGMNQFKDCFLGLEKRAYTRATTSQKCVRAGGKHNDLENVGYTARHHTFFEMLGNFSFGDYFKRDAIHYAWEFLTGEKWLNLPKEKLWVTVYATDDEAYDIWTKEVGVPAERMVRIGDNKGAPYASDNFWAMGDTGPCGPCTEIFFDHGPEIWGGPPGSPEEDGDRYIEIWNNVFMQFNRTADGVMHPLPAPSVDTGMGLERVSAVLQHVHSNYEIDLFQNLLKASAEAIGCANDDAPSLKVVADHIRSCSFLIADGVLPSNEGRGYVLRRIIRRACRHGNKLGARGTFFHKIVAALVAEMGDAFPELKQQQAHIERVLKTEEEQFAKTLEQGLKILEQDLAELQGSVIPGNVVFKLYDTYGFPVDLTNDIARERELTIDEDGFEREMEAQRERARASSAFGMDYNSLVKVDGETRFLGYQGVSGAGQIVALFRDGQAVERLEEGEEGVVVLDQTPFYAESGGQVGDSGYLEAAGVRFDVRDTTKAGGAHLHHGVVARGNLSVGGAVKAEVDASVRQATALNHSATHLLHAALRQVLGDHVQQKGSLVDSQRLRFDFSHFEAIKAEQLKALEDIVNAEIRRNTEVETEETDIDTAKAKGAMALFGEKYGDQVRVLSMGGDFSVELCGGTHVSRTGDIGLFKITSEGGVAAGVRRIEAVTGAAALAYLNGAEEQLKEAASLVKGSRDNLLDKLGALLERNRSLEKELEQLKAKAASAAGDDLSAAAVEIKGAKVLAARLDGLDGKALLALVDQLKNKLGRAVILLGGELDGKVVLVAGVTQDLTGQLKAGELMKQAAAAVGGKGGGRPDMAQGGGTDAAKLDEALALAQRF	not soluble
MAHHHHHHMASQKPEDVTVSDGMLANLEREFNEAMRALEGHVKFVCFREEYEKLHRALLNSHESEKRLVRRCQQLTQELMSNAAKMQAAVKLAQDDHTTIEALKKETEKAWRMVDVANEKDARAKETIKKLREEVFSLQEIVENGTELTPTQTATLEELKLEKKRMQSEYDELVKQMETLTRETFELGHKMKEAEEEMMKHQEELRRVTDREKTVRQEYEKELRARDRSNLQLREQLLLVQQREKELKSHEQLHSKLSSAVNLLRLQLQEDQNRRQALAQKIESAERQLYHTQQSYDDAVDTREALNERHREVRKEITEAEKKAVDITAEKQRTHRVRDNDYKELCRLVQQNEDIRRDQTNLERQRLNVEKRIEMARREKEDLCRAFEMMQREKDSLKKVSEKEREKMQIMKN	soluble
MSLNKGSERTFNDLVEFIGEEMDFESGFYNDSYLDRRITARMRRTDTEDYQTYQRLLERDNGEREELLDSLSINVTSFFRNPEAWERLRPVLRELTENNRRVRLWSAPSADGREPYSAAMLALDDPEIDARRVEITATDINADILEEARKGTYATSQTTDIADELEPLDDYTKYIEQDGDTFQVRDQVKEMVTFEQHDLIRGDPKRDFDLVFCRNLLIYIDSEFKVPIFETIRGSLREGGYLMIGMTETLPAECRDSFEAVDKRHRIYRREGHHHHHH	not soluble
PTQSPSEFIAELARCAQPIAQANDLYASVMMAQAIVESGWGASTLSKAPNYNLFGIKGSYNGQSVYMDTWEYLNGKWLVKKEPFRKYPSYMESFQDNAHVLKTTSFQAGVYYYAGAWKSNTSSYRDATAWLTGRYATDPSYNAKLNNVITAYNL	not soluble
MEDLNFEERGSTQIPASLQQHFSAKLGRQNELEKTPSRGGLGLVVNSSKTPGGKSLQSLASACKVPPSTKKNTIPIAFECYEDETDDQIADVATIKKTEKHPCSPIDTANRCETFDSLAADIEDDMLNLEDQDVVLSEDRPYGDVIDPAESEAEALAELGVEEWDSYPPIDPASRIGDDFNYVLRTEDFAEEGDVKLEETRHRTVIADIDEVKMSKAERNELFSMLADDLDSYDLLAEEANLPL	not soluble
MGSDKIHHHHHHMDVWKVLGRYSNVLVLSKKNSILILEINGKAPKPGESVRVWNNRVMTGKELKAKLLAHFDEELSLKVLKVPGLLEFLHDISRGFDKKYVHFVKLFVKHLVPSRFLKMNNEEKKIIMKSFPEVFESGPSSVRIRFSVKSFFEYVQKNFPINRNINEEALRRTVTLKRPILSTEEYDVYQMNEPLSKGFAGKNYMALPLSGKYLIVVFRRRNFPFVEFKLKEEPDLTFFEDFVNDKVAVEKRENGWVLIWKDREMMEFELPDKELLPRPEKLVDDDLLDAVFLLNSLLEENVRFASMPSFGVQEMWWEKDNNRVILVVNTVRFGRVVADVILEGRSLSVRFYAEKNSEELSAHSEELQKEFERLGLIAHVFFLRKDPMNWEGFNAYG	not soluble
MSPTVRTARHDDYDDIVDLTSDVWADRAMADYIPDVFRDWVDDDGPNRKTLVVDVDGHAVGLAQAVILTETEAWFQGMRVDSDHRGKGFGSLLTEHLIEWAADAGASVGRSMVFSWNEAGLGQSLAAGFEAVTSFRWAHPDPADETPEMTVRNDPTNAWRYWQESDGRGVLSGLALDSGESWALSTLTRETLDRLAADQTVLTIGDDGPQGMACRVRTTDADGEQLAEYAVGVWSDVDAARALFTAIAADAATLGVDGTRVLIPETPRHVAQAAYASGNIDECPDFVLEIDGLEELS	not soluble
